Consider 20 molecules from paper PMC8196545 (Cell reports, 2021).

The target of this assay is HIV-1 NL4-3 Env on infected cells (HIV-1 group M subtype B, NL4-3 (pNL4-3 …, strain)).

B1: c9370 (antibody, V domains shown)
VH: EVQLVESGGGVVQPGGSLRLSCAASGFTFYSHTMIWVRQAPGKGPQYISHISSTGSNKDYSDSVKGRFTVSRDNDKNSLYLQMDSLRVEDTAIYYCARRSCSLTDCFVRSFSYDMDVWGQGTAVTVSS
VL: QSALTQPASMSGSPGQSISISCTGTTSDIGGYDSVCWYRQHPGEAPTLLIYDVSNRPSGVSGRFSGSKSANTASLTISGLQAEDEADYYCSSYSTGSSLVVFGGGTKLTVI
For B1, the binding result is “binds”.

B2: c13160 (antibody, V domains shown)
VH: QLHLQESGPGLVKPSETLFLTCTVSGGSMSSSSYYWVWIRQPPRGRDWSRIGSIYYTGSTLTTTHPWRVESLLSVDTSKNQFSLKMNSVTAADTARYYCASSGLYAFWGQGILVPVSS
VL: DAVVTQSPLVLPVTLGQPASISCRSNQSLLFGEGNTYLNWFQQRPGQSPRRLIHNISKRDSGVPDRFSGSGSGTDFTLEISRVEAEDVGVYYCMQGIHSPPTWTFGQGTKVEIK
For the molecule B2, the binding result is on record as “binds”.

B3: c11031 (antibody, V domains shown)
V domain 1: EVRLDQSGAEMRKTGTSVRLSCTISGHTTSDFFIHWVKQAPQRGPQWMGLINVEDENVIFAEGFQGRISIGADTSRTTVFLDLTHLTVEDMALYFCTTHTLEKDTGDYVAAFDSWGHGTFLSVSS
V domain 2: QSVLTQPPSVSAVPGQKVIISCSGRTSNIGTNFVSWYQQFPGAAPKLLIYDTSHRPSGISDRFSASKSDTSATLAITALQPGDEAEYYCGAWDSGLNPAVFVFGSGTRVFVL
With B3, the binding result is on record as “binds”.

B4: c10868 (antibody, V domains shown)
V domain 1: EVRLDQSGAEMGKTGTSVRLSCTVSGHTTSDFFIHWVKQAPQRGPQWMGLINVEDENVIFAEGFQGRISIGADTSKTTVFLDLTHLTFEDMALYFCTTHTLEKDTGDYVSAFDSWGQGTFLSVSS
V domain 2: QSVLTQPPSVSAVPGQKVIISCSGRTSNIGTNFVSWYQQFPGAAPKLLIYDTFHRPSGISDRFSASKSDTSATLAITALQPGDEAEYYCGAWDSGLNPAVFVFGSGTRVFVL
On to B4, for which the binding result is reported as “binds”.

B5: c10927 (antibody, V domains shown)
V domain 1: EVRLDQSGTEMRKPGTRVRLSCKVSGHTTSDFFVHWVQQAPQRGPQWMGLINVEDENVIYADIFQGRISIVADTSKKTVFLDLTDLTFEETAIYFCATHTLQKDTGDYVAAFDSWGQGTLLYVSS
V domain 2: QSVLTQPPSVSAVPGQKVIISCSGRTSNIGTNFVSWYQQFPGAAPKLLIYDNFNRPSGISDRFSASKSDTSATLAITALQAGDEAEYYCGAWDSGLNPAVFVFGSGTRVFVL
B5: the binding result is reported as “binds”.

B6: c10920 (antibody, V domains shown)
V domain 1: EVRLDQSGAEMRKPGTSVRLSCTVSGHRTNDFFIHWVKQDPQRGPLWMGLINVEDENAIYAQEFQGRISIVADSSKTTVFLDLSHLKFEDTALYLCTTHTLEKETGDYVAAFDSWGQGTFLSVSS
V domain 2: QSVLTQPPSVSAVPGQKVIISCSGRTSNIGTNFVSWYQQFPGAAPKLLIYDTFHRPSGISDRFSASKSDTSATLAITALQPGDEAEYYCGSWDSGLNPAVFVFGSGTRVFVL
Turning to B6, the binding result is “binds”.

B7: c7565 (antibody, V domains shown)
VH: QVRLEERGPGLVKPSETLSLVCGVSGYTMSGLWSTTYDWNWIRQSAGGRPEWIGRIYVGGPAQYNPAFKDRVAFSIDLSKNELSLTLTSVTAADSATYFCARGGDTFHPRYWYTMNIWGSGTKVIVSS
VL: DIQLTQSPSTVSASVGDRITMSCRANKSLDVWVAWFRRRPGKAPEHLIYRRDYVWGGLPSRFSGSGSGTEFTLTISSLQAGDFGTYYCHQYKDQPWTFGQGTRVDLK
As to B7, the binding result is “binds”.

B8: c8537 (antibody, V domains shown)
VH: QVHLVESGGGVVQPGKSLRLSCTSSGFTFSNYGFHWVRQAPGKGLEWVSFISNDGSNHFYTQSLRGRFTISRDNSKGTLYLEMNSLRSEDTAIYYCARDLYSRYRGYYDDLTGENHGNFDYWGLGTLVTVSA
VL: NFLLSQSLSVSESPGKTVTISCTRSSGNIASNSVQWYQLRPGSSPTTLIYKNRQRPSGISDRFSGSVDTSSNSASLIISGLKTDDEADYYCQSFDNVNQEWVFGGGTKVTVL
For the molecule B8, the binding result was “binds”.

B9: c6486 (antibody, V domains shown)
VH: QPQMIQSGIEVKQPGAAVKVRCKPSGYWFIACGISWVRQAPGRGLEWLGWVYPYNGKVNHAQKFRGRVTLTADRSTETAYMELKSLTSDDTAIYYCARDSEQYDAAMPNYFTQYGMDVWGQGTTVIVSS
VL: EIVLTQSPGTLSLSPGETAALSCRSSQAFTDKGLAWYKQRPGQPPSLFVYGVSKRAAGVPDRVTGSGSGTEYTLTIGRLEPEDSGLYFCQQYHDPARTFGQGTKLEIK
Consider B9, for which the binding result is on record as “binds”.

B10: c5250 (antibody, V domains shown)
VH: QVRLEQWGPGLLKPSETLSLTCAVHGESFDDYSWTWIRHTPSLGLQWIGEIRPFGEIVHKSSLSGRLSFSRDTSKRQVYLKLASVTAADAGVYFCARGPVIYQLPHFYYRGYNVWGQGTTVTVSA
VL: DLVVTQSPRSLPVTPGESATIFCRSSQSLRHDNGMHYLDWYLQKPGQSPQLLIYLTSNRASGVSDRFSGSGSGTEFTLKISRVEADDVGIYYCMQAIQDPRVFGQGTRLEIK
For B10, the binding result is “binds”.

B11: c5478 (antibody, V domains shown)
VH: QVRLQQWGPGLLKPSDTLSLTCAVHGESFHDYSWTWIRQTPSLGLQWIGEIRPFGEIVHKSSLSGRLSFSRDTSKRQVSLRLTSVTAADAGVYFCARGPVIYHLPDFYYRGYNVWGQGTTVTVSA
VL: DVVVTQSPRSLRVTPGESATIFCRSSQSLRHANGMHYLDWYLQKPGQSPQLLIYLTSNRASGVPDRFSGSGSGTEFTLKISRVEADDVGMYYCMQAIQDPRVFGQGTRLEIK
With B11, the binding result is given as “binds”.

B12: c10859 (antibody, V domains shown)
VH: AGHLVESGGKLIRPGGSLSLSCVASGFTFRNAYLTWVRHIPGKGLEWVAHMKSHADGSHTDYSASVQGRCAISRDDSASTLYLHISNLRLDDTGVYYCVHLSTPDEWGHGTPVIVSS
VL: DVVLTQYPVTLSGSQGDTVALSCRASESLTSHLAWYQQRDGQRPRLLIYDTSHRPPATPPRFSASGSGTDFTLIITSLEPEDSAVYFCQQRDFWPFSFGQGTKLDIT
Regarding B12, the binding result was “binds”.

B13: c9603 (antibody, V domains shown)
VH: EVHLLQSAAEVKKPGSTVKVSCKVSGYTFTDYFLHWIQQTPERGLLWMGFVDPDSGVTVYAENFQGRITMTADTSSDTVYLEISSLTSEDAAVYYCATGSHSYPDTDGNPVYVMAFQYWGQGTLVSVSS
VL: DIVMTQSPDSLGVSLGETATVKCKSSQSILYSSDNKNYLAWYQQKPGQPPKLLIYWASTRESGVPDRFSGSGSETDFTLTINNVQAEDVAVYYCQQYSESPPTFGGGTKVDFK
In the case of B13, the binding result is “binds”.

B14: c9369 (antibody, V domains shown)
VH: QVQLVQSGAEVKKPGSSVKVSCKASGGSFSDFGISWVRQAPGQGLEWMGGIIPGFETANYGQDFQGRVTMTADESTGTAYMEVRRLRSEDTAVYYCATTGQQNDYYSSGASYKLNYYFGLDVWGQGTAVSVSS
VL: QSVLTQPPSSSGTPGQRVTISCSGSSSNIGSNTVNWYQQLPGTAPKVVISANHQRPSGVPDRFSASKSGASASLAISGLQSEDEADYYCAAWDDSRNAWVFGGGTKLTVL
Consider B14, for which the binding result is listed as “binds”.

B15: c9416 (antibody, V domains shown)
VH: QVQLVQSGAEVRKPGSSVKVSCKASGGSFSDFGISWVRQAPGQGLEWMGGIIPGFETANYGQDFQGRVTMTADESTGTAYMELRRLRSEDTAVYYCATTGQQNDYYSSGLSYKLNYYLGLDVWGQGTAVSVSS
VL: QSVLTQPPSSSGTPGQRVTISCSGSSSNIGSNSVNWYQQLPGAAPKVVISANHQRPSGVPDRFSASKSGASASLAISGLQSEDEADYYCAAWDDSRNAWVFGGGTKLTVL
For the molecule B15, the binding result is “binds”.

B16: c5296 (antibody, V domains shown)
VH: QVHLQESAPTLVKTSETLSLTCTVSGGQFYPYFYSWIRQSPGGKLQWIGRKYSTTGSMRTNPSLHTRVGMPLDHSRSQIGLTLSSITAADTGIYYCVRDIMRDFDSVDGSGGVYGGVDVWGRGTTVTVSS
VL: QFLLTQPHSVSGSPGKTITISCTRSDGTFARNSVRWYLQRPGEGPTTVFFDGNRRASGIPDRFSASIAVSSASASLTISGLTPEDEADYYCESSDGGHHVVFGGGTKVTVL
As to B16, the binding result is “binds”.

B17: c11405 (antibody, V domains shown)
VH: EARLVESGGGRVQPGGSLRLSCEASGFRFSSYSFTWVRQSPGKGLEWLAKISASPFGRSQVNYAHSVEGRFTISRDNDRNSLRLQMNDLRGADTGVYYCARAPWQERSLDYNYAMDVWGQGTTVIVSS
VL: ELVLTQSPGTLSLSPGERATVSCRASQSLRRDSLAWYQQKPGHSPRLLIFAASNRVPGIPYRFSGTGSGTQFTLTIEKMEPEDFAVYYCQSYGSSPLYTFGQGTKLDIN
As for B17, the binding result is recorded as “binds”.

B18: c22674 (antibody, V domains shown)
VH: QVQLVQSGPEVKKPGTSVKVSCKASGYTFSNYAICWVRQAPGQGLEWVGATSAYNDETSYAQKFQGRVTVTRDSSTSTAYLELRSLRSEDSAVYYCARGGYYESSGSDASDYYAMDVWGQGTTVTVSS
VL: SYELTQPPSVSVSLGQMARITCSGDALSKKYVYWYQQKPGQVPVLVMYQDTERPSGIPERFSGSTSGTIVTLIIGGVQAEDEADYFCLSADDSGTYVVFGGGTKLTVL
On to B18, for which the binding result is recorded as “binds”.

B19: c13230 (antibody, V domains shown)
VH: QVQLVESGGGVVQPGKSLKLSCATSGFNFSTFGIHWVRQAPGKGLEWLTVISYDGSEKFYGESVKGRFTISRDTSKKTVFLQIKSLKTEDTAVYYCAKDRAENRVSTSPLGMYYYFGMDVWGQGTTVIVSS
VL: EIMMTQSPATLSASPGEGVTLSCRASQSVSNDFAWYQQTPGQSPKLLFYDAYTRATGVPARFSVNGSGTDFTLTINSLQSEDFASYYCLQYHKWPPYSFGQGTKLGIK
For the molecule B19, the binding result is “binds”.

B20: c4302 (antibody, V domains shown)
VH: QVLLEQSGGEMKKPGASLKVSCQASGYRFTNYGMSWVRQARGQGLEWMGWISAYNGKTIYAQRFQGRVTLTTDTSTRTAYLELRSLTSDDTAVYFCTRSQTYYFDSSDFYDGKYFDYWGQGTLVTVSS
VL: AIQLTQSPSSLSASVGDRVTLTCRASQGISNALAWYQQKPGESPKLLIHAASSLESGVPSRFSGSGSGTDFTLTISGLQAEDFATYYCQQFNSFPLTFGPGTRLEIK
Take B20: the binding result is “binds”.
